Measured values from patent US20220339289A1 (Bicycle, published 2022).
Starred links: 1 amine or outer side, 2 acyl side, 3 side chain; linkers in the order of their positions; H or OH if unused. Positions of bridges follow the written chain, without caps; N, C: chain ends. *: point of attachment. TATA = O=C(CC[*:1])N1CN(C(=O)CC[*:2])CN(C(=O)CC[*:3])C1; Pent4ynoyl = C#CCCC(=O)*

Biological target: T1, Recombinant biotinylated human P-Selectin protein (human, UniProt P16109 42-771, limits assumed, biotinylated (site not stated))
T1 sequence (looked up): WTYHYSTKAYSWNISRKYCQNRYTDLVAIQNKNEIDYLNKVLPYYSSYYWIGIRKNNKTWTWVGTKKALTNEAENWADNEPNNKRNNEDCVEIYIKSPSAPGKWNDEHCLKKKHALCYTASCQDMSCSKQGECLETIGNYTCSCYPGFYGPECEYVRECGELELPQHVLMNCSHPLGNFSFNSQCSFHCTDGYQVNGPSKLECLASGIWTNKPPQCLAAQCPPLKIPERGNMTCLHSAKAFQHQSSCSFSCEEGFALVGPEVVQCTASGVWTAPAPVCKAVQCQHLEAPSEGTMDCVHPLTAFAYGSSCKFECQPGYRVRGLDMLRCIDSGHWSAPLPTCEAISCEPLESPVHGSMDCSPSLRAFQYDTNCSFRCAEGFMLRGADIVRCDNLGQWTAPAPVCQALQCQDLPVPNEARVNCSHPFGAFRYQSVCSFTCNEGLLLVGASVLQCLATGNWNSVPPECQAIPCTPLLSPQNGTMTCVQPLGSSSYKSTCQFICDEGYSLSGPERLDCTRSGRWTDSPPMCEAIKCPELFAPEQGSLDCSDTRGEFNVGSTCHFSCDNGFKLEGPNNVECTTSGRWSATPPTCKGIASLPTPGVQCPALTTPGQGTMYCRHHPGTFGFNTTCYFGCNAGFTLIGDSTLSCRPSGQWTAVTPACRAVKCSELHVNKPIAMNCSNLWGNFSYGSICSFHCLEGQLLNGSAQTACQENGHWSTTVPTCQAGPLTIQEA
Assay: SPR (Biacore), biotinylated human P-selectin captured on streptavidin chip, peptide as analyte; peptide BCY5455, a separate peptide number
Method: Biacore experiments were performed to determine ka (M−1s−1), kd (s−1), KD (nM) values of monomeric peptides binding to human Selectin proteins. Recombinant biotinylated human P-Selectin protein was used. For analysis of binding, either a Biacore 3000 or 5200 instrument was used with a CMS sensor chip (GE Healthcare). For sensor chip surface preparation, streptavidin was immobilized on the chip using standard amine-coupling chemistry at 25° C. with HBS-N (10 mM HEPES, 0.15 M NaCl, pH 7.4) as the running buffer. The carboxymethyl dextran surface was activated with a 12 min injection of a 1:1 ratio of 0.4 M 1-ethyl-3-(3-dim ethyl aminopropyl) carbodiimide hydrochloride (EDC)/0.1 M N-hydroxy succinimide (NHS) at a flow rate of 10 μl/min. For capture of streptavidin, protein was diluted to 0.2 mg/ml in 10 mM sodium acetate (pH 4.5) and captured by injecting 70 μl onto the activated chip surface. Residual activated groups were blocked with a 7 min injection of 1 M ethanolamine (pH 8.5). Biotinylated protein stock was diluted 1:100 in HBS-N and captured on one flow cell at 5 μl/min to a level of 1000-1500 RU. Buffer was changed to PBS/0.05% Tween 20 and a dilution series of the peptides was prepared in this buffer with a final DMSO concentration of 0.5%. […] In all cases a titration was performed with either seven 2-fold dilutions or five 3-fold dilutions. […]

B1: BCY5455 (peptide)
peptide: Pent4ynoyl-ACYMEWCDVTDYGCA-NH2
modifications: linker 2-7-14 via TATA; also: tandem dimer of 2 copies via central hinge C (GTA) and spacer S1A n=23 joined to N-terminal Pya
Question: For B1, which Kd is on record?
Answer: 1250 nM
